In US20050106581A1, “Modified phosphodiesterase polypeptides with altered physiochemical properties” (priority 2002, published 2005):

Experiments:
[1] = Qualitative investigation of aggregation by size exclusion chromatography (gel filtration); type: physicochemical; settings: Superose 12, compared to the five isoforms of PDE4D (D3, D5-D8)
Description: The term “improved physicochemical properties” as used herein refers to a decrease in aggregate formation of polypeptides. For the purpose of definition, aggregate formation of the polypeptides of this invention is determined by quantitation of the fractions of a gelfiltration experiment in which aggregated PDE elutes, and of the fractions in which non-aggregated PDE elutes. The degree of aggregation is calculated in percent of non-aggregated PDE based on total (aggregated and non-aggregated) PDE. […] Chromatograms were recorded at 278 nm. […]
50 μl of Ni-NTA agarose purified isoform preparation was injected into a Superose 12 size exclusion column (type PC3.2/30; Amersham Pharmacia Biotech), equilibrated with 50 mM TrisHCl pH 7.7, 100 mM NaCl, 0.5 mM MgCl2 at a flow rate of 0.1 ml/min at 4° C. Chromatograms were recorded at 278 nm. […]

[2] = Quantification of aggregates and tubulin content (SDS-PAGE densitometry of SEC fractions); type: physicochemical; settings: compared to isoforms D3 and D5 to D8
Text: In a preferred embodiment, the invention provides a polypeptide comprising a PDE polypeptide sequence, with an amino-terminal deletion wherein the proportion of non-aggregated PDE in the total protein preparation is from 55 %, preferably from 60%, more preferably from 65%, most perferably from 68% to 100%, preferably to 90%, more preferably to 80%, most preferably to 70% of total protein, as determined by the quantitation of eluted fractions from a gel filtration of the PDE fractions. Quantitation was performed as follows: Equal volume aliquots of fractions from Size Exclusion Chromatography, run as hereinbefore described, were analyzed by SDS-PAGE (one gel per run and isoform, FIG. 3). […]
To determine the decrease in tubulin association, the ratio of PDE molecules per tubulin molecules in the preparation of PDE polypeptide was calculated by quantitation of SDS-PAGE. […] The tubulin content of PDE preparations was determined as follows: Equal volume aliquots of fractions from SEC were analyzed by SDS-PAGE (one gel per run and isoform, FIG. 3). Optical densities of Coomassie stained PDE and tubulin bands were integrated as described hereinbefore for PDE aggregation quantitation. […]
Quantification of Aggregates and Tubulin Content
Equal volume aliquots of fractions from SEC were analyzed by SDS-PAGE (one gel per run and isoform, FIG. 3). […]

B1: DC: PDE4D polypeptide with amino-terminal deletion starting at the LF1 splice site, SEQ ID No. 2, 6xHis tagged (protein, listed as Homo sapiens)
chain: MFDVDNGTSAGRSPLDPMTSPGSGLILQANFVHSQRRESFLYRSDSDYDLSPKSMSRNSSIASDIHGDDLIVTPFAQVLASLRTVRNNFAALTNLQDRAPSKRSPMCNQPSINKATITEEAYQKLASETLEELDWCLDQLETLQTRHSVSEMASNKFKRMLNRELTHLSEMSRSGNQVSEFISNTFLDKQHEVEIPSPTQKEKEKKKRPMSQISGVKKLMHSSSLTNSSIPRFGVKTEQEDVLAKELEDVNKWGLHVFRIAELSGNRPLTVIMHTIFQERDLLKTFKIPVDTLITYLMTLEDHYHADVAYHNNIHAADVVQSTHVLLSTPALEAVFTDLEILAAIFASAIHDVDHPGVSNQFLINTNSELALMYNDSSVLENHHLAVGFKLLQEENCDIFQNLTKKQRQSLRKMVIDIVLATDMSKHMNLLADLKTMVETKKVTSSGVLLLDNYSDRIQVLQNMVHCADLSNPTKPLQLYRQWTDRIMEEFFRQGDRERERGMEISPMCDKHNASVEKSQVGFIDYIVHPLWETWADLVHPDAQDILDTLEDNREWYQSTIPQSPSPAPDDPEEGRQGQTEKFQFELTLEEDGESDTEKDSGSQVEEDTSCSDSKTLCTQDSESTEIPLDEQVEEEAVGEEEESQPEACVIDDRSPDTHHHHHH
modifications: 6xHis tag; PDE4D_core (1)..(664); LF1_splice_site (2)..(2); UCR1_site_-13 (22)..(22); UCR1_site (35)..(35); SER54 (39)..(39); SER579 (564)..(564)
Aggregate formation (gel filtration elution profile) [1]: decrease in aggregation | Percentage of non-aggregated PDE4D based on total PDE4D protein [2]: highest percentage of non-aggregated PDE4D | Tubulin content (ratio between PDE4D and tubulin, total mass basis) [2]: significantly lower
